Reference: the supplement of paper PMC9732359
± gives the uncertainty stated by the source.

Test: protein stability index of a GFP-peptide fusion (yeast GPS) (PSI 1-4); higher = more stable; sorted into four equal gates, so the index is relative within each strain
How it was run: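 Each library plasmid carries Cherry plus GFP with a tiled 17-residue yeast protein peptide fused downstream, and the pooled library was carried in yeast. Mid-log cultures in leucine-free medium were sorted into four equal gates by GFP/Cherry ratio. Reads from Illumina sequencing of PCR-amplified plasmids from each gate were assigned to strains by barcodes. Per peptide, the protein stability index was computed as the summed products of gate read frequency and gate number.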

Row | Sequence | protein stability index (doa10∆) | protein stability index (pdr5∆) | protein stability index (san1∆) | protein stability index (ubr1∆)
1 | SAKTRSHNWAAKAKRRH [RPL37B] | 3.42 ± 0.093 | 3.32 ± 0.071 | 3.31 ± 0.059 | 3.41 ± 0.042
2 | RNVTIQLENADTGTLDT [RPN2] | 3.11 ± 0.095 | 3.2 ± 0.082 | 3.13 ± 0.069 | 3.2 ± 0.093
3 | GTQMTLKTFHFAGVASM [RPO31] | 1.63 ± 0.11 | 1.85 ± 0.088 | 1.68 ± 0.13 | 2.1 ± 0.12
4 | KQQGVGLPTDAYVAIEQ [RPN8] | 2.78 ± 0.083 | 2.7 ± 0.15 | 2.89 ± 0.21 | 3.19 ± 0.1
5 | EVSCKLLETITYVLNTW [YML103C/NUP188] | 2.15 ± 0.068 | 2.35 ± 0.073 | 2.07 ± 0.11 | 2.11 ± 0.082
6 | AEQSFDQQSPWLLRLEL [RPO21] | 3 ± 0.052 | 3.14 ± 0.051 | 3.1 ± 0.039 | 3.11 ± 0.04
7 | KCFDDIEPHIFDQLIEW [YCG1] | 3.2 ± 0.075 | 3.1 ± 0.081 | 3.31 ± 0.046 | 3.3 ± 0.046
8 | SDMENDNLLLNLEQINE [REC8] | 2.76 ± 0.056 | 2.75 ± 0.048 | 2.72 ± 0.06 | 2.86 ± 0.048
9 | PSLKDSSSNGGGSAKPS [RPC53] | 2.91 ± 0.18 | 2.82 ± 0.14 | 2.7 ± 0.27 | 2.93 ± 0.15
10 | AAMVPFIKFKLIQQVPP [CDC53] | 2.12 ± 0.062 | 1.92 ± 0.07 | 2.17 ± 0.1 | 2.07 ± 0.068
11 | ITVVLGVNGYIWLRKTS [RRP4] | 1.61 ± 0.2 | 1.62 ± 0.12 | 1.34 ± 0.26 | 1.95 ± 0.11
12 | ANVFRLENQKDLVIVDE [MTW1] | 3.49 ± 0.12 | 3.36 ± 0.15 | 3.4 ± 0.091 | 3.43 ± 0.074
13 | PAEVGRAIRSEKYGKQV [BRR2] | 3.27 ± 0.22 | 3.15 ± 0.073 | – | –
14 | YFWHKIWRKVPGDVLDK [SNU114] | 1.15 ± 0.095 | 1.08 ± 0.064 | 1.51 ± 0.23 | 1.22 ± 0.094
15 | AMKELAEKKIPLVIRRY [RPO26] | 1.28 ± 0.087 | 1.55 ± 0.092 | 1.7 ± 0.13 | 1.73 ± 0.11
16 | MTLEDNNVTSNPSEFTP [SSN2] | 2.75 ± 0.069 | 3.03 ± 0.067 | 2.92 ± 0.068 | 3.16 ± 0.064
17 | ESLILKWDNQSASRAKN [RGR1] | 3.16 ± 0.05 | 3.24 ± 0.055 | 2.9 ± 0.05 | 3.09 ± 0.052
18 | SRILKAQSRNVEIEKRI [YGR119C/NUP57] | 3.39 ± 0.07 | 3.15 ± 0.066 | 2.98 ± 0.067 | 2.67 ± 0.053
19 | RLAKSTENEIPNLIEKM [BRR2] | 1.62 ± 0.08 | 1.5 ± 0.052 | 1.75 ± 0.087 | 1.68 ± 0.058
20 | TLLREVVFTRLVQRCWQ [CSN12] | 1.4 ± 0.061 | 1.24 ± 0.048 | 1.39 ± 0.12 | 1.54 ± 0.055
21 | QSSAIGALQESVEAYLV [HHT1] | 2.04 ± 0.077 | 2.81 ± 0.087 | 2.39 ± 0.11 | 2.15 ± 0.079
22 | DHYESNQLVAKLLLLRI [SRB8] | 2.84 ± 0.065 | 2.74 ± 0.085 | 2.84 ± 0.1 | 2.34 ± 0.038
23 | MTTPQNISSSQQLLPAP [DSN1] | 2.82 ± 0.049 | 2.89 ± 0.04 | 2.74 ± 0.036 | 2.81 ± 0.038
24 | LSTGRKFERARGRRRSK [RPL18A] | – | – | – | 3.05 ± 0.1
25 | KCSTRGLSTDHTTQIVN [YML103C/NUP188] | 2.9 ± 0.079 | 2.9 ± 0.085 | 2.79 ± 0.07 | 3.01 ± 0.054
26 | TEYGRKYNVNISALTQT [PRP8] | 2.07 ± 0.14 | 2.53 ± 0.093 | 2.94 ± 0.14 | 2.5 ± 0.047
27 | DNDIMNLGSRTKNNTQA [SSN3] | 2.91 ± 0.038 | 2.92 ± 0.038 | 2.76 ± 0.028 | 2.977 ± 0.029

Row | Sequence | protein stability index (doa10∆) | protein stability index (pdr5∆) | protein stability index (san1∆) | protein stability index (ubr1∆)
28 | TSSNIVLETHESGIKPY [RPT6] | 2.55 ± 0.097 | 2.76 ± 0.061 | 2.68 ± 0.099 | 2.47 ± 0.061
29 | IVSFIVNCFHEDTELYQ [YJL039C/NUP192] | 1.62 ± 0.051 | 1.71 ± 0.051 | 2.22 ± 0.055 | 2.46 ± 0.036
30 | GNPTNISSPIVANSPNK [YDL088C/ASM4] | 1.3 ± 0.13 | 2.06 ± 0.14 | – | 1.82 ± 0.1
31 | GLSMLAKLKELAEDVDD [RPC31] | 2.92 ± 0.079 | 3.31 ± 0.061 | 2.87 ± 0.078 | 2.95 ± 0.047
32 | SASLHLNYGVYLNGTLI [RET1] | 2.65 ± 0.16 | – | 3.09 ± 0.1 | 3.18 ± 0.092
33 | SDIKQGYTQHGGLRPFG [PRE9] | 3.5 ± 0.13 | 2.53 ± 0.23 | 3.58 ± 0.15 | –
34 | GRGTLFVRGDSKIFRFQ [RPL24A] | 1.58 ± 0.05 | 1.74 ± 0.076 | 1.95 ± 0.087 | 2.21 ± 0.065
35 | KLLKQPKFDVGALMALH [RPS1A] | 1.9 ± 0.056 | 2.16 ± 0.083 | 1.9 ± 0.084 | 1.9 ± 0.069
36 | PLKFKLGPLSYQNMAFI [YJR042W/NUP85] | 2.42 ± 0.064 | 2.55 ± 0.06 | 2.58 ± 0.062 | 2.6 ± 0.049
37 | VTGFAEVGPWGSARTRW [FAS2] | 2.24 ± 0.079 | 3.03 ± 0.086 | 2.73 ± 0.093 | 2.06 ± 0.071
38 | NEPTQKDEEETEYFENK [DSN1] | 3.58 ± 0.27 | 3.54 ± 0.23 | 2.71 ± 0.29 | 3.12 ± 0.23
39 | IAGFDLIGCIDEAKDFI [PUP3] | 3.17 ± 0.11 | 3.33 ± 0.13 | 3.08 ± 0.073 | 3.21 ± 0.055
40 | KINDESSIDKKSSILTV [YML103C/NUP188] | 2.35 ± 0.062 | 2.68 ± 0.067 | 2.56 ± 0.059 | 2.52 ± 0.056
41 | SLQEDVSFDFNGVPGQA [MED8] | 2.41 ± 0.06 | 2.97 ± 0.057 | 2.64 ± 0.086 | 3 ± 0.053
42 | YTETDPAKVAEEGINKF [SRP54] | 3.05 ± 0.1 | 3.3 ± 0.097 | 2.9 ± 0.089 | 3.04 ± 0.095
43 | ADLPGSYNLEYIESKFC [YMR129W/POM152] | 3.16 ± 0.13 | 3.38 ± 0.19 | 3.13 ± 0.14 | 3.24 ± 0.093
44 | LSEDVNLETLVTTKDDL [RPT2] | 3.01 ± 0.13 | 2.87 ± 0.17 | 2.57 ± 0.15 | 2.89 ± 0.096
45 | LLLNYLELIGVLSINPD [MED7] | 1.6 ± 0.067 | 1.78 ± 0.063 | 1.31 ± 0.14 | 1.49 ± 0.058
46 | QSLLSLYFEIIHGVLKN [FAS2] | 2.37 ± 0.12 | 1.84 ± 0.076 | 2.14 ± 0.17 | 1.51 ± 0.045
47 | DGSAIEDDDIRSRMLPT [SNF5] | 3.19 ± 0.086 | 3.03 ± 0.11 | 3.46 ± 0.12 | 3.34 ± 0.057
48 | VDPASAPNHSPEIDNLD [RRP6] | 3.1 ± 0.11 | 2.98 ± 0.074 | 3.25 ± 0.072 | 3.16 ± 0.059
49 | QANSNLTLLERKWVIFI [NUT1] | 1.85 ± 0.055 | 1.92 ± 0.044 | 1.67 ± 0.094 | 2.19 ± 0.061
50 | RNAQAQREAAAEYAQLL [RPS6A] | 2.88 ± 0.23 | 3.31 ± 0.2 | 2.85 ± 0.15 | 3.2 ± 0.12
51 | LILQRLKDLNLTVSIKI [RGR1] | 1.76 ± 0.073 | 1.96 ± 0.071 | 2.65 ± 0.072 | 1.98 ± 0.052
52 | FSTNVKDEIVLSGNSVE [RPL9A] | 2.03 ± 0.13 | 2.18 ± 0.13 | 2.34 ± 0.13 | 2.59 ± 0.054
53 | LQESINHVMYTEVSRKS [ECM29] | 2.47 ± 0.054 | 2.74 ± 0.062 | 2.47 ± 0.077 | 2.51 ± 0.035
